Data taken from US20230329245A1, “COMPOSITIONS AND METHODS OF USE THEREOF” (Curie Co. Inc., priority 2020, published 2023).
“And” between values parts separate entries of the source, which are not always exact repeats. Equal values may be shown once.

Tests used:
Type in all cases: cell-based
[1] = system: C. albicans ATCC 10231; test: Growth reduction of C. albicans culture (OD600 / BacTiter-Glo); settings: C. albicans ATCC 10231
Description: For MIC determination of yeast cultures, C. albicans ATCC 10231 was grown overnight (24 hours) in YPD media at 30° C. The following day, the cell density of the saturated cultures was calculated using OD600 and cultures were diluted to 10^4 to 10^6 CFU/mL in sterile YPD media to generate the inoculum, and 90 μL of the inoculum was combined with 10 μL of serially diluted Tgase SEQ ID NO:1 at a range of 0.0001-0.01 weight percent. The cultures were grown overnight at 30° C. and growth curves were measured by OD600 on a BioTek® Synergy Plate Reader. Optionally, the following day, a cell viability assay such as BacTiter-Glo™ (Promega®) following manufacturer's protocols) could be used to assess cell viability. A decrease in OD600 or luminescence indicated a decrease in cell viability. Results are presented as a percent reduction in cell count relative to an untreated culture. All test conditions were performed in triplicate.
(§1) Yeast or bacterial starter cultures were grown as described previously. Tgase (SEQ ID NO:6) was added to each culture at 0.001-1 weight percent. The cultures were grown overnight at 30° C.-37° C. and growth curves were measured by a BioTek® Synergy Plate Reader.

[2] = system: P. aeruginosa ATCC 9027; test: MIC determination, P. aeruginosa; settings: CAMHB pH 7.3, 37° C., 18 to 20 hours, duplicate
Description: (§2) A variant form of Streptomyces mobaraensis transglutaminase having the amino acid sequence depicted in SEQ ID NO:6 was prepared by literature methods with a hexa-his-tag to aid in purification (Javitt, et al. (2017) BMC Biotechnol. 17:23). The cells were grown in shake flasks, lysed by homogenization, and the Tgase variant (SEQ ID NO:6) was isolated from the cell debris by centrifugation. The resulting semi-purified enzyme (clarified lysate) were compared on an SDS-PAGE gel, by spectroscopy, and activity for concentration of active enzyme. The Tgase variant (SEQ ID NO:6) was further purified by affinity column on a Ni-IMAC resin prior to MIC assay. Tgase activity was measured in the examples herein using a colorimetric hydroxamate activity assay (Folk and Cole (1965) J Biol Chemistry 240(7):2951-2960). The enzyme was diluted to a working stock concentration of 2 mg/mL in CAMHB or RPMI media (bacterial or fungal media). This was then 2-fold serial diluted ten times in the appropriate media in a 96-well master plate to generate 2× starting concentrations for MIC testing.
(§3) Strains were acquired from the American Type Culture Collection (ATCC) (Manassas, VA) and maintained as −80° C. frozen glycerol stocks: S. aureus ATCC 6538, E. coli ATCC 8739, P. aeruginosa ATCC 9027, C. albicans ATCC 10231, and A. brasiliensis ATCC 16404. B. subtilis BGSC 1A1276 was purchased from the Bacillus Genetic Stock Center (BGSC) (Columbus, OH) and maintained as −80° C. frozen glycerol stock. Cation-adjusted Mueller-Hinton broth (CAMHB) at pH 7.3 was used for testing with bacterial species (unless otherwise noted), while RPMI 1640 media buffered with 0.165 M MOPS at pH 7.0 was used for testing with all fungal species.
For MIC determination, bacterial strains (S. aureus ATCC 6538, E. coli ATCC 8739, P. aeruginosa ATCC 9027) were grown overnight on Tryptic Soy Agar (TSA) plates at 37° C. A few colonies of each strain were collected with a sterile swab and used to make a McFarland 0.5 standard solution (approximately 1×10^8 CFU/mL) in sterile PBS. […]

[3] = system: E. coli ATCC 8739; test: MIC determination, E. coli; settings: CAMHB pH 7.3, 37° C., 18 to 20 hours, duplicate
Description: as §2, §3
For MIC determination, bacterial strains (S. aureus ATCC 6538, E. coli ATCC 8739, P. aeruginosa ATCC 9027) were grown overnight on Tryptic Soy Agar (TSA) plates at 37° C. A few colonies of each strain were collected with a sterile swab and used to make a McFarland 0.5 standard solution (approximately 1×10^8 CFU/mL) in sterile PBS. The McFarland solution was then diluted 1:100 in CAMHB to generate the inoculum, and 50 μL of this inoculum was combined with 50 μL of the 2× test article in a 96-well plate for a final concentration of 1×. All test conditions were performed in duplicate. The bacterial-strain MIC 96-well plates were incubated at 37° C. for 18 to 20 hours. MIC is defined as the lowest concentration of a compound in which no visible growth is observed.

[4] = system: A. brasiliensis ATCC 16404; test: MIC determination, A. brasiliensis; settings: RPMI 1640 pH 7.0, 25° C., up to 7 days, duplicate
Description: as §2, with “testing. […]” for “testing.”
C. albicans MIC 96-well plate was incubated for 37° C. for 24 to 48 hours. […] After incubation, all 96-well plates were examined visually and on a spectrophotometer at absorbance OD650. […]

[5] = system: C. parapsilosis ATCC 22019; test: Minimum fungicidal concentration (MFC), C. parapsilosis; settings: no colonies recovered, duplicate, listed as Tgase variant (SEQ ID NO: 6)
[6] = system: Yeast or bacterial starter cultures; test: Tgase biocidal activity on yeast or bacterial cultures (Example 2); settings: where biocidal activity could be observed with both enzymes
Description: A variant form of Streptomyces mobaraensis transglutaminase having the amino acid sequence depicted in SEQ ID NO:6 was prepared by literature methods (Javitt, et al. (2017) BMC Biotechnol. 17:23) as previously described. Tgase activity was measured using the colorimetric hydroxamate activity assay (Folk and Cole (1965) J Biol Chemistry 240(7):2951-2960). Tgase cytotoxic activity was assessed either using OD600 or a commercially available kit (BacTiter-Glo™, Promega®, following manufacturer's protocol).
as §1

B1: Tgase (SEQ ID NO: 6): variant Streptomyces mobaraensis transglutaminase (SEQ ID NO:2) with N-terminal Methionine, C-terminal peptide linker and hexa-His-Tag (protein)
chain: MDPDDRVTPPAEPLDRMPDPYRPSYGRAETVVNNYIRKWQQVYSHRDGRKQQMTEEQREWLSYGCVGVTWVNSGQYPTNRLAFASFDEDRFKNELKNGRPRSGETRAEFEGRVAKESFDEEKGFQRAREVASVMNRALENAHDESAYLDNLKKELANGNDALRNEDARSPFYSALRNTPSFKERNGGNHDPSRMKAVIYSKHFWSGQDRSSSADKRKYGDPDAFRPAPGTGLVDMSRDRNIPRSPTSPGEGFVNFDYGWFGAQTEADADKTVWTHGNHYHAPNGSLGAMHVYESKFRNWSEGYSDFDRGAYVITFIPKSWNTAPDKVKQGWPLEHHHHHH
B1 was tested, and the “Fold improvement in enzyme efficacy” value ([1]; Tgase (SEQ ID NO: 1) = 1) was 10, the “Percent Growth Reduction” value ([1]; enzyme concentration 80 ug/mL) was 99.95% and the MIC [2] was >1,000 μg/mL. The MIC [3] was >1,000 μg/mL, the MIC [4] was 62.5 µg/mL and the MFC [5] was 250 µg/mL and 125 µg/mL. For the same molecule, the “potency relative to Tgase SEQ ID NO:1” value [6] was 10 fold.
